What was measured:
[1] = molecular target: TGFβ1 (human) (UniProt P01137); assay: cell-based or functional assay
[2] = molecular target: TGFβ2 (human) (UniProt P61812); assay: cell-based or functional assay
[3] = molecular target: TGFβ3 (human) (UniProt P10600); assay: cell-based or functional assay
[4] = molecular target: TGFβ1 (human) (UniProt P01137); assay: SPR (Biacore 2000), TGFβ immobilised on CM1 chip, antibody injected
[5] = molecular target: TGFβ2 (human) (UniProt P61812); assay: as above
[6] = molecular target: TGFβ3 (human) (UniProt P10600); assay: as above
[7] = molecular target: TGFβ1 (human) (UniProt P01137); assay: SPR (Biacore A100), BM-1 captured on anti-mouse Fc CM5 chip, TGFβ injected
[8] = molecular target: TGFβ2 (human) (UniProt P61812); assay: as above
[9] = molecular target: TGFβ3 (human) (UniProt P10600); assay: as above

TGFβ3 (human), sequence (P10600 301-412 limits assumed): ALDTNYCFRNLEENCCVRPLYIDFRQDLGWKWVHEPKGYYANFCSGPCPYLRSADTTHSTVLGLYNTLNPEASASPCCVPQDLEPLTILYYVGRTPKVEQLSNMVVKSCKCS
TGFβ1 (human), sequence (P01137 279-390 limits assumed): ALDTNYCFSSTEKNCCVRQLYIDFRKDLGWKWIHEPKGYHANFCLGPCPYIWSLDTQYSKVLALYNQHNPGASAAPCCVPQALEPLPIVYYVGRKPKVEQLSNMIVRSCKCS
TGFβ2 (human), sequence (P61812 303-414 limits assumed): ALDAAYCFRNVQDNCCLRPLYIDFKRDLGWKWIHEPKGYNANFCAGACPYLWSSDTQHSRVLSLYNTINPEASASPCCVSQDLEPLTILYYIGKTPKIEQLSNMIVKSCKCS

B1: BM-1 (1D11, R&D Systems MAB1835) (antibody, from another filing, V domains shown)
VH: QVQLQQSGPELVRPGASVKLSCKASGYIFITYWMNWVKQRPGQGLEWIGQIFPASGSTNYNEMFEGKATLTVDTSSSTAYMQLSSLTSEDSAVYYCARGDGNYALDAMDYWGQGTSVTVSS
VL: DIVLTQSPASLAVSLGQRATISCRASESVDSYGNSFMHWYQQKSGQPPKLLIYLASNLESGVPARFSGSGSRTDFTLTIDPVEADDAATYYCQQNNEDPLTFGAGTKLEIK
HT-2 cell neutralization assay, IC50 [1]: 220
IL-11 Release Assay - IC50 (A549 cells) [1]: 292 ng/mL
IL-11 Release Assay - IC50 (A549 cells) [2]: 498 ng/mL
HT-2 cell neutralization assay, IC50 [3]: 196
IL-11 Release Assay - IC50 (A549 cells) [3]: 12 ng/mL
Kd [4]: 0.304 nM
koff [4]: 0.0039 s⁻¹
kon [4]: 1.28e+07 M⁻¹ s⁻¹
Kd [5]: 0.977 nM
koff [5]: 0.00684 s⁻¹
kon [5]: 7e+06 M⁻¹ s⁻¹
Kd [6]: 0.188 nM
koff [6]: 0.000946 s⁻¹
kon [6]: 5.05e+06 M⁻¹ s⁻¹
Kd [7]: 0.072 nM
koff [7]: 0.0014 s⁻¹
kon [7]: 1.9e+07 M⁻¹ s⁻¹
Kd [8]: 0.17 nM
koff [8]: 0.002 s⁻¹
kon [8]: 1.1e+07 M⁻¹ s⁻¹
Kd [9]: 0.048 nM
koff [9]: 0.00031 s⁻¹
kon [9]: 6.5e+06 M⁻¹ s⁻¹
